Test results: US20250195917A1, “SEQUENTIAL TRANSARTERIAL CHEMOEMBOLIZATION, STEREOTACTIC BODY RADIOTHERAPY, AND IMMUNOTHERAPY (START-FIT) FOR HEPATOCELLULAR CARCINOMA” (The University of Hong Kong, priority 2023, published 2025)
Where two headings read alike, the source gives them in different places.

Type: in vivo
Conditions: for Edema / Fatigue / Fever / Infusion-related reaction / Musculoskeletal pain / Others (Constitutional) / Weight decreased: Constitutional; for Constipation / Decreased appetite / Diarrhea / Gastritis/GI bleed / Nausea / Others (Gastrointestinal) / Stomatitis / Vomiting: Gastrointestinal; for Any adverse event: worst toxicity grade; for ALT increased / AST increased / Abdominal pain / Bilirubin raised / GGT increased: Hepatic; for Dermatitis / Hepatitis / Others immune-related: Immune-related; for Amylase increased / Anemia / Hypercreatinine / Hyperglycemia / Hypokalemia / Hyponatremia / Hypothyroidism / Leukopenia / Lipase increased / Neutropenia / Thrombocytopenia: Laboratory; for Dry skin / Others (Skin) / Pruritus / Rash, acneiform / Rash, maculopapular / Rash, urticarial: Skin
Method: All patients underwent a single treatment of conventional TACE within 28 days of study enrolment. Conventional TACE was performed by supra-selective cannulation of all the branches supplying the tumor. The emulsion was prepared by mixing iodised oil with cisplatin (1 mg/mL) in a 1:1 ratio. A maximum of 60 mL of emulsion was injected. Preparation of the emulsion was followed by embolisation with gelfoam (gelatin granules) pellets of 1 mm diameter mixed with 40 mg of gentamicin. At 28 days (plus or minus 3 days) after the completion of TACE, stereotactic body radiotherapy was delivered to all lesions. Patients were immobilised via a vacuum foam bag (Vac-Lok™; MEDTEC, IA, USA) and active breathing control to reduce liver motion. Imaging was performed on the inhale breath-hold contrast CT. Gross tumor volume was defined as a tumor focus that was visualised by contrast imaging. The clinical target volume was defined as gross tumor volume with expansion to include the area stained with iodised oil. The individualised planning target volume margins were formulated to compensate for respiratory motion and setup errors. Cone beam CT was acquired on board before each treatment. A radiation dose of 27.5-40.0 Gy in five fractions delivered daily was allowed per protocol. The prescription isodose encompassed 95% of the planning target volume. The final dose was determined such that a maximum tumoricidal dose could be delivered to tumors while respecting the tolerance dose of the organ at risk (Table 3). The radiotherapy toxicity was assessed by CTCAE; version 4.01.
All patients underwent baseline contrast-enhanced MRI of the liver and CT of the thorax. Treatment response evaluation was assessed with MRI after cycle 4, cycle 8, and cycle 12 of avelumab and every 12 weeks thereafter (plus or minus 7 days). Radiological imaging was reported using the modified Response Evaluation Criteria in Solid Tumors (mRECIST). A CT of the thorax was done every 26 weeks or at the time of radiological or clinical evidence of disease progression according to mRECIST criteria. All patients were discussed in a multidisciplinary team board meeting of surgeons specializing in liver transplantation and liver surgery, clinical oncologists, interventional radiologists, and diagnostic radiologists. This meeting was held once every 2 weeks to decide resectability and treatment failure. All patients underwent complete tumor staging to exclude distant metastasis before surgery. A board-certified radiologist conducted an independent blinded review in addition to the investigator review. Safety assessments were documented throughout the treatment period. Adverse events were graded according to the US National Cancer Institute Common Terminology Criteria for Adverse Events (CTCAE; version 4.01). The frequency, duration, and severity of adverse events were recorded.
The primary endpoint was the percentage of patients deemed to be amenable to curative treatment after conversion therapy. Amenability for curative treatment was fulfilled when one of the following criteria was met: either a sustained complete response or sustained partial response achieved for at least 2 months and if curative treatment could be performed (based on investigator's review). […] Post-hoc analyses included radiological response according to immune RECIST, correlation of clinical outcomes with BCLC stage, albumin-bilirubin score, radiological assessment criteria, biomarkers, and median time to treatment response.

avelumab
Edema (Grade 1-2): 0 (0%) number of patients (%)
Fatigue (Grade 1-2): 9 (27%) number of patients (%)
Fever (Grade 1-2): 1 (3%) number of patients (%)
Infusion-related reaction (Grade 1-2): 7 (21%) number of patients (%)
Musculoskeletal pain (Grade 1-2): 0 (0%) number of patients (%)
Others (Constitutional) (Grade 1-2): 9 (27%) number of patients (%)
Weight decreased (Grade 1-2): 7 (21%) number of patients (%)
Edema (Grade 3): 0 (0%) number of patients (%)
Fatigue (Grade 3): 0 (0%) number of patients (%)
Fever (Grade 3): 0 (0%) number of patients (%)
Infusion-related reaction (Grade 3): 0 (0%) number of patients (%)
Musculoskeletal pain (Grade 3): 0 (0%) number of patients (%)
Others (Constitutional) (Grade 3): 0 (0%) number of patients (%)
Weight decreased (Grade 3): 0 (0%) number of patients (%)
Edema (Grade 4): 0 (0%) number of patients (%)
Fatigue (Grade 4): 0 (0%) number of patients (%)
Fever (Grade 4): 0 (0%) number of patients (%)
Infusion-related reaction (Grade 4): 0 (0%) number of patients (%)
Musculoskeletal pain (Grade 4): 0 (0%) number of patients (%)
Others (Constitutional) (Grade 4): 0 (0%) number of patients (%)
Weight decreased (Grade 4): 0 (0%) number of patients (%)
Edema (Grade 5): 0 (0%) number of patients (%)
Fatigue (Grade 5): 0 (0%) number of patients (%)
Fever (Grade 5): 0 (0%) number of patients (%)
Infusion-related reaction (Grade 5): 0 (0%) number of patients (%)
Musculoskeletal pain (Grade 5): 0 (0%) number of patients (%)
Others (Constitutional) (Grade 5): 0 (0%) number of patients (%)
Weight decreased (Grade 5): 0 (0%) number of patients (%)
Constipation (Grade 1-2): 2 (6%) number of patients (%)
Decreased appetite (Grade 1-2): 4 (12%) number of patients (%)
Diarrhea (Grade 1-2): 4 (12%) number of patients (%)
Gastritis/GI bleed (Grade 1-2): 0 (0%) number of patients (%)
Nausea (Grade 1-2): 2 (6%) number of patients (%)
Others (Gastrointestinal) (Grade 1-2): 3 (9%) number of patients (%)
Stomatitis (Grade 1-2): 0 (0%) number of patients (%)
Vomiting (Grade 1-2): 1 (3%) number of patients (%)
Constipation (Grade 3): 0 (0%) number of patients (%)
Decreased appetite (Grade 3): 0 (0%) number of patients (%)
Diarrhea (Grade 3): 0 (0%) number of patients (%)
Gastritis/GI bleed (Grade 3): 0 (0%) number of patients (%)
Nausea (Grade 3): 0 (0%) number of patients (%)
Others (Gastrointestinal) (Grade 3): 0 (0%) number of patients (%)
Stomatitis (Grade 3): 0 (0%) number of patients (%)
Vomiting (Grade 3): 0 (0%) number of patients (%)
Constipation (Grade 4): 0 (0%) number of patients (%)
Decreased appetite (Grade 4): 0 (0%) number of patients (%)
Diarrhea (Grade 4): 0 (0%) number of patients (%)
Gastritis/GI bleed (Grade 4): 0 (0%) number of patients (%)
Nausea (Grade 4): 0 (0%) number of patients (%)
Others (Gastrointestinal) (Grade 4): 0 (0%) number of patients (%)
Stomatitis (Grade 4): 0 (0%) number of patients (%)
Vomiting (Grade 4): 0 (0%) number of patients (%)
Constipation (Grade 5): 0 (0%) number of patients (%)
Decreased appetite (Grade 5): 0 (0%) number of patients (%)
Diarrhea (Grade 5): 0 (0%) number of patients (%)
Gastritis/GI bleed (Grade 5): 0 (0%) number of patients (%)
Nausea (Grade 5): 0 (0%) number of patients (%)
Others (Gastrointestinal) (Grade 5): 0 (0%) number of patients (%)
Stomatitis (Grade 5): 0 (0%) number of patients (%)
Vomiting (Grade 5): 0 (0%) number of patients (%)
Adverse event, Lead to discontinuation (Grade 1-2): 0 (0%) number of patients (%)
Any adverse event (Grade 1-2): 27 (82%) number of patients (%)
Adverse event, Lead to discontinuation (Grade 3): 1 (3%) number of patients (%)
Any adverse event (Grade 3): 4 (12%) number of patients (%)
Adverse event, Lead to discontinuation (Grade 4): 1 (3%) number of patients (%)
Any adverse event (Grade 4): 1 (3%) number of patients (%)
Adverse event, Lead to discontinuation (Grade 5): 0 (0%) number of patients (%)
Any adverse event (Grade 5): 0 (0%) number of patients (%)
ALT increased (Grade 1-2): 7 (21%) number of patients (%)
AST increased (Grade 1-2): 6 (18%) number of patients (%)
Abdominal pain (Grade 1-2): 1 (3%) number of patients (%)
Bilirubin raised (Grade 1-2): 7 (21%) number of patients (%)
GGT increased (Grade 1-2): 2 (6%) number of patients (%)
ALT increased (Grade 3): 2 (6%) number of patients (%)
AST increased (Grade 3): 1 (3%) number of patients (%)
Abdominal pain (Grade 3): 0 (0%) number of patients (%)
Bilirubin raised (Grade 3): 0 (0%) number of patients (%)
GGT increased (Grade 3): 0 (0%) number of patients (%)
ALT increased (Grade 4): 0 (0%) number of patients (%)
AST increased (Grade 4): 1 (3%) number of patients (%)
Abdominal pain (Grade 4): 0 (0%) number of patients (%)
Bilirubin raised (Grade 4): 0 (0%) number of patients (%)
GGT increased (Grade 4): 0 (0%) number of patients (%)
ALT increased (Grade 5): 0 (0%) number of patients (%)
AST increased (Grade 5): 0 (0%) number of patients (%)
Abdominal pain (Grade 5): 0 (0%) number of patients (%)
Bilirubin raised (Grade 5): 0 (0%) number of patients (%)
GGT increased (Grade 5): 0 (0%) number of patients (%)
Dermatitis (Grade 1-2): 2 (6%) number of patients (%)
Hepatitis (Grade 1-2): 2 (6%) number of patients (%)
Others immune-related (Grade 1-2): 5 (15%) number of patients (%)
Dermatitis (Grade 3): 2 (6%) number of patients (%)
Hepatitis (Grade 3): 3 (9%) number of patients (%)
Others immune-related (Grade 3): 0 (0%) number of patients (%)
Dermatitis (Grade 4): 0 (0%) number of patients (%)
Hepatitis (Grade 4): 0 (0%) number of patients (%)
Others immune-related (Grade 4): 0 (0%) number of patients (%)
Dermatitis (Grade 5): 0 (0%) number of patients (%)
Hepatitis (Grade 5): 0 (0%) number of patients (%)
Others immune-related (Grade 5): 0 (0%) number of patients (%)
Amylase increased (Grade 1-2): 0 (0%) number of patients (%)
Anemia (Grade 1-2): 5 (15%) number of patients (%)
Hypercreatinine (Grade 1-2): 3 (9%) number of patients (%)
Hyperglycemia (Grade 1-2): 1 (3%) number of patients (%)
Hypokalemia (Grade 1-2): 6 (18%) number of patients (%)
Hyponatremia (Grade 1-2): 4 (12%) number of patients (%)
Hypothyroidism (Grade 1-2): 5 (15%) number of patients (%)
Leukopenia (Grade 1-2): 6 (18%) number of patients (%)
Lipase increased (Grade 1-2): 0 (0%) number of patients (%)
Neutropenia (Grade 1-2): 1 (3%) number of patients (%)
Thrombocytopenia (Grade 1-2): 4 (12%) number of patients (%)
Hypothyroidism (Grade 1-2, first listing): 0 (0%) number of patients (%)
Amylase increased (Grade 3): 0 (0%) number of patients (%)
Anemia (Grade 3): 0 (0%) number of patients (%)
Hypercreatinine (Grade 3): 0 (0%) number of patients (%)
Hyperglycemia (Grade 3): 0 (0%) number of patients (%)
Hypokalemia (Grade 3): 0 (0%) number of patients (%)
Hyponatremia (Grade 3): 0 (0%) number of patients (%)
Hypothyroidism (Grade 3): 0 (0%) number of patients (%)
Leukopenia (Grade 3): 0 (0%) number of patients (%)
Lipase increased (Grade 3): 0 (0%) number of patients (%)
Neutropenia (Grade 3): 0 (0%) number of patients (%)
Thrombocytopenia (Grade 3): 0 (0%) number of patients (%)
Hypothyroidism (Grade 3, first listing): 0 (0%) number of patients (%)
Amylase increased (Grade 4): 0 (0%) number of patients (%)
Anemia (Grade 4): 0 (0%) number of patients (%)
Hypercreatinine (Grade 4): 0 (0%) number of patients (%)
Hyperglycemia (Grade 4): 0 (0%) number of patients (%)
Hypokalemia (Grade 4): 0 (0%) number of patients (%)
Hyponatremia (Grade 4): 0 (0%) number of patients (%)
Hypothyroidism (Grade 4): 0 (0%) number of patients (%)
Leukopenia (Grade 4): 0 (0%) number of patients (%)
Lipase increased (Grade 4): 0 (0%) number of patients (%)
Neutropenia (Grade 4): 0 (0%) number of patients (%)
Thrombocytopenia (Grade 4): 0 (0%) number of patients (%)
Hypothyroidism (Grade 4, first listing): 0 (0%) number of patients (%)
Amylase increased (Grade 5): 0 (0%) number of patients (%)
Anemia (Grade 5): 0 (0%) number of patients (%)
Hypercreatinine (Grade 5): 0 (0%) number of patients (%)
Hyperglycemia (Grade 5): 0 (0%) number of patients (%)
Hypokalemia (Grade 5): 0 (0%) number of patients (%)
Hyponatremia (Grade 5): 0 (0%) number of patients (%)
Hypothyroidism (Grade 5): 0 (0%) number of patients (%)
Leukopenia (Grade 5): 0 (0%) number of patients (%)
Lipase increased (Grade 5): 0 (0%) number of patients (%)
Neutropenia (Grade 5): 0 (0%) number of patients (%)
Thrombocytopenia (Grade 5): 0 (0%) number of patients (%)
Hypothyroidism (Grade 5, first listing): 0 (0%) number of patients (%)
Dry skin (Grade 1-2): 6 (9%) number of patients (%)
Others (Skin) (Grade 1-2): 0 (0%) number of patients (%)
Pruritus (Grade 1-2): 8 (24%) number of patients (%)
Rash, acneiform (Grade 1-2): 0 (0%) number of patients (%)
Rash, maculopapular (Grade 1-2): 6 (9%) number of patients (%)
Rash, urticarial (Grade 1-2): 2 (6%) number of patients (%)
Dry skin (Grade 3): 0 (0%) number of patients (%)
Others (Skin) (Grade 3): 0 (0%) number of patients (%)
Pruritus (Grade 3): 1 (3%) number of patients (%)
Rash, acneiform (Grade 3): 0 (0%) number of patients (%)
Rash, maculopapular (Grade 3): 1 (3%) number of patients (%)
Rash, urticarial (Grade 3): 1 (3%) number of patients (%)
Dry skin (Grade 4): 0 (0%) number of patients (%)
Others (Skin) (Grade 4): 0 (0%) number of patients (%)
Pruritus (Grade 4): 0 (0%) number of patients (%)
Rash, acneiform (Grade 4): 0 (0%) number of patients (%)
Rash, maculopapular (Grade 4): 0 (0%) number of patients (%)
Rash, urticarial (Grade 4): 0 (0%) number of patients (%)
Dry skin (Grade 5): 0 (0%) number of patients (%)
Others (Skin) (Grade 5): 0 (0%) number of patients (%)
Pruritus (Grade 5): 0 (0%) number of patients (%)
Rash, acneiform (Grade 5): 0 (0%) number of patients (%)
Rash, maculopapular (Grade 5): 0 (0%) number of patients (%)
Rash, urticarial (Grade 5): 0 (0%) number of patients (%)
Permanent discontinuation due to immune-related adverse events (avelumab 10 mg/kg every 2 weeks after TACE and SBRT): two
Median duration of dose interruption (seven patients with interruption): 4 weeks
